Laboratory results reported in patent US20200317768A1 (published 2020).

T1: cynomolgus monkey FcγRIIa1 extracellular domain, C-terminal His-tag (cynomolgus monkey)
T1 construct: also called cyno FcγRIIa1; cynoFcgRIIa1; not shown: His-tag added to C-terminus
T1 chain: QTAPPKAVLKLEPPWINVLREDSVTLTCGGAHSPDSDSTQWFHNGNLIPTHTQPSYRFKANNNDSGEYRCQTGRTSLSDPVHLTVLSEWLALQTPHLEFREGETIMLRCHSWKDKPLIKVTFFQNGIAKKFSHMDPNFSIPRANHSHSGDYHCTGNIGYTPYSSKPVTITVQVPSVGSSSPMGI

T2: human FcγRIIb extracellular domain, C-terminal His-tag (human, UniProt P31994 43-217)
T2 construct: also called FcgRIIb (human); not shown: His-tag added to C-terminus
T2 sequence: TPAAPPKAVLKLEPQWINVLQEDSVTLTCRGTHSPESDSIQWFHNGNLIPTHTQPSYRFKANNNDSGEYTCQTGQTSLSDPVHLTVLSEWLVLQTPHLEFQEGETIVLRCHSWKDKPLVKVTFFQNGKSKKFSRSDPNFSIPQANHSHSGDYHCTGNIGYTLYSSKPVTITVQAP

T3: human FcγRIIaH extracellular domain, C-terminal His-tag (human, UniProt P12318 34-217)
T3 construct: also called human FcγRIIa (type H); FcgRIIaH; not shown: His-tag added to C-terminus
T3 sequence: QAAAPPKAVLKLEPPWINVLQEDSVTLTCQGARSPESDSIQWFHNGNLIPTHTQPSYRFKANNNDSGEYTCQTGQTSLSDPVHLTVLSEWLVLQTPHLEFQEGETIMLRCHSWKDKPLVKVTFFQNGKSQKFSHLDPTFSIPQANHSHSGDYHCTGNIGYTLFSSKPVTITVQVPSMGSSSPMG

T4: cynomolgus monkey FcγRIIa2 extracellular domain, C-terminal His-tag (cynomolgus monkey)
T4 construct: also called cyno FcγRIIa2; cynoFcgRIIa2; not shown: His-tag added to C-terminus
T4 chain: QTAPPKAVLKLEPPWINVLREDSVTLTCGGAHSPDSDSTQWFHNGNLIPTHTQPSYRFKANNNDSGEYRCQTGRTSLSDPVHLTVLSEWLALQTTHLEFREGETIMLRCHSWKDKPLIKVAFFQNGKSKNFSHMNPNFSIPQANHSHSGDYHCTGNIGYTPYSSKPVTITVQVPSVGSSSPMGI

T5: cynomolgus monkey FcγRIIb extracellular domain, C-terminal His-tag (cynomolgus monkey)
T5 construct: also called cyno FcγRIIb; cynoFcγRIIb; not shown: His-tag added to C-terminus
T5 chain: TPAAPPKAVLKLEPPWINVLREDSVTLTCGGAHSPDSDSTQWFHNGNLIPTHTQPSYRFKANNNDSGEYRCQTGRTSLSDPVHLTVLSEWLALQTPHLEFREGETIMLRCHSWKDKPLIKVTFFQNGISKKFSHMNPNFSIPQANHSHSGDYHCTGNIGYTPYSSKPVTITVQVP


Legend:
Assay in all cases: SPR (Biacore), antibody captured, FcgR analyte, 25 C
[1] = molecular target: T1, cynomolgus monkey FcγRIIa1 …
[2] = molecular target: T6, cynomolgus monkey FcγRIIIaS extracellular domain, C-terminal His-tag (cynomolgus monkey, UniProt A3RFZ7 21-206 (rhesus entry))
T6 construct: also called cyno FcγRIIIaS; cynoFcγRIIIaS; not shown: His-tag added to C-terminus
T6 sequence (A3RFZ7 21-206): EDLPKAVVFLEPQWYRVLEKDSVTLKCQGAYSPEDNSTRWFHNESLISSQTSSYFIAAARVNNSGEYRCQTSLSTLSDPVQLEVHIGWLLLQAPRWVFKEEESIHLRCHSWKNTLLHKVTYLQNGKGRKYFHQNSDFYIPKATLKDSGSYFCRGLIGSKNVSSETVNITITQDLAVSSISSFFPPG

[3] = molecular target: T2, human FcγRIIb extracellular domain, …
[4] = molecular target: T7, human FcγRIIIaV extracellular domain, C-terminal His-tag (human, UniProt P08637 17-208)
T7 construct: also called FcgRIIIaV; not shown: His-tag added to C-terminus
T7 sequence (P08637 17-208 F176V): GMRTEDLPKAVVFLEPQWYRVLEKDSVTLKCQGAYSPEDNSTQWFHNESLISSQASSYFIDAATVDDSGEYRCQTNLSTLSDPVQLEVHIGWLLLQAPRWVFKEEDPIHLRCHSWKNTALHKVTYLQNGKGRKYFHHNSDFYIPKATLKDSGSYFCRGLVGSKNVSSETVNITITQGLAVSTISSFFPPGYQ

[5] = molecular target: T3, human FcγRIIaH extracellular domain, …
[6] = molecular target: T4, cynomolgus monkey FcγRIIa2 …
[7] = molecular target: T5, cynomolgus monkey FcγRIIb extracellular …

| Binder | Kd [1] | Kd [2] | Kd [3] | Kd [4] | Kd [5] | Kd [6] | Kd [7] |
| --- | --- | --- | --- | --- | --- | --- | --- |
| M103205H795-MY270/M103202L889-SK1 (antibody, human IgG1, kappa) heavy: QVTLKESGPVLVKPTETLTLTCTVSGIDLSHDDISWVRQAPGKGLEWVGIISYAGSTYYASWAKGRLTISKDTSKNQVVLTMTNMDPVDTATYYCARGVPAYSHGGDLWGQGTLVTVSSASTKGPSVFPLAPSSKSTSGGTAALGCLVKDYFPEPVTVSWNSGALTSGVHTFPAVLQSSGLYSLSSVVTVPSSSLGTQTYICNVNHKPSNTKVDKKVEPKSCDKTHTCPPCPAPELLHGPSVFLFPPKPKDTLMISRTPEVTCVVVDVSDEDPEVKFNWYVDGVEVHNAKTKPREEQYNSTYRVVSVLTVLHQDWLNGKEYKCKVSNKALPKPIEKTISKAKGQPREPQVYTLPPSREEMTKNQVSLTCLVKGFYPSDIAVEWESNGQPENNYKTTPKVLDSDGSFFLYSKLTVDKSRWQQGNVFSCSVMHEALHNHYTQKSLSLSP light: DIVMTQSPATLSLSPGERATLSCTSSQSVYHANWLSWFQQKPGQPPKLLIYWASTLAYGVPSRFSGSGSGTDFTLTISSLQPEDAATYYCAGGYGGGRYAFGQGTKVEIKRTVAAPSVFIFPPSDEQLKSGTASVVCLLNNFYPREAKVQWKVDNALQSGNSQESVTEQDSKDSTYSLSSTLTLSKADYEKHKVYACEVTHQGLSSPVTKSFNRGEC | 1800 nM | 1100 nM | 2500 nM | 3700 nM | 73 nM | 2300 nM | 530 nM |
| M103205H795-MY273/M103202L889-SK1 (antibody, human IgG1, kappa) heavy: QVTLKESGPVLVKPTETLTLTCTVSGIDLSHDDISWVRQAPGKGLEWVGIISYAGSTYYASWAKGRLTISKDTSKNQVVLTMTNMDPVDTATYYCARGVPAYSHGGDLWGQGTLVTVSSASTKGPSVFPLAPSSKSTSGGTAALGCLVKDYFPEPVTVSWNSGALTSGVHTFPAVLQSSGLYSLSSVVTVPSSSLGTQTYICNVNHKPSNTKVDKKVEPKSCDKTHTCPPCPAPELLLGPSVFLFPPKPKDTLMISRTPEVTCVVVDVSDEDPEVKFNWYVDGVEVHNAKTKPREEQYNSTYRVVSVLTVLHQDWLNGKEYKCKVSNKALPKPIEKTISKAKGQPREPQVYTLPPSREEMTKNQVSLTCLVKGFYPSDIAVEWESNGQPENNYKTTPKVLDSDGSFFLYSKLTVDKSRWQQGNVFSCSVMHEALHNHYTQKSLSLSP light: DIVMTQSPATLSLSPGERATLSCTSSQSVYHANWLSWFQQKPGQPPKLLIYWASTLAYGVPSRFSGSGSGTDFTLTISSLQPEDAATYYCAGGYGGGRYAFGQGTKVEIKRTVAAPSVFIFPPSDEQLKSGTASVVCLLNNFYPREAKVQWKVDNALQSGNSQESVTEQDSKDSTYSLSSTLTLSKADYEKHKVYACEVTHQGLSSPVTKSFNRGEC | 3700 nM | 1700 nM | 3000 nM | 9700 nM | 510 nM | 3500 nM | 1200 nM |
| M103205H795-MY272/M103202L889-SK1 (antibody, human IgG1, kappa) heavy: QVTLKESGPVLVKPTETLTLTCTVSGIDLSHDDISWVRQAPGKGLEWVGIISYAGSTYYASWAKGRLTISKDTSKNQVVLTMTNMDPVDTATYYCARGVPAYSHGGDLWGQGTLVTVSSASTKGPSVFPLAPSSKSTSGGTAALGCLVKDYFPEPVTVSWNSGALTSGVHTFPAVLQSSGLYSLSSVVTVPSSSLGTQTYICNVNHKPSNTKVDKKVEPKSCDKTHTCPPCPAPELLQGPSVFLFPPKPKDTLMISRTPEVTCVVVDVSDEDPEVKFNWYVDGVEVHNAKTKPREEQYNSTYRVVSVLTVLHQDWLNGKEYKCKVSNKALPKPIEKTISKAKGQPREPQVYTLPPSREEMTKNQVSLTCLVKGFYPSDIAVEWESNGQPENNYKTTPKVLDSDGSFFLYSKLTVDKSRWQQGNVFSCSVMHEALHNHYTQKSLSLSP light: DIVMTQSPATLSLSPGERATLSCTSSQSVYHANWLSWFQQKPGQPPKLLIYWASTLAYGVPSRFSGSGSGTDFTLTISSLQPEDAATYYCAGGYGGGRYAFGQGTKVEIKRTVAAPSVFIFPPSDEQLKSGTASVVCLLNNFYPREAKVQWKVDNALQSGNSQESVTEQDSKDSTYSLSSTLTLSKADYEKHKVYACEVTHQGLSSPVTKSFNRGEC | 1900 nM | 290 nM | 1200 nM | 870 nM | 92 nM | 1900 nM | 430 nM |

The next binders have a lower Kd [1] than those just listed; values first:

| Kd [1] | Kd [2] | Kd [3] | Kd [4] | Kd [5] | Kd [6] | Kd [7] | Binder |
| --- | --- | --- | --- | --- | --- | --- | --- |
| 1100 nM | 1200 nM | 2400 nM | 5700 nM | 53 nM | 1300 nM | 310 nM | M103205H795-MY276/M103202L889-SK1 (antibody, human IgG1, kappa) heavy: QVTLKESGPVLVKPTETLTLTCTVSGIDLSHDDISWVRQAPGKGLEWVGIISYAGSTYYASWAKGRLTISKDTSKNQVVLTMTNMDPVDTATYYCARGVPAYSHGGDLWGQGTLVTVSSASTKGPSVFPLAPSSKSTSGGTAALGCLVKDYFPEPVTVSWNSGALTSGVHTFPAVLQSSGLYSLSSVVTVPSSSLGTQTYICNVNHKPSNTKVDKKVEPKSCDKTHTCPPCPAPELLIGPSVFLFPPKPKDTLMISRTPEVTCVVVDVSDEDPEVKFNWYVDGVEVHNAKTKPREEQYNSTYRVVSVLTVLHQDWLNGKEYKCKVSNKALPKPIEKTISKAKGQPREPQVYTLPPSREEMTKNQVSLTCLVKGFYPSDIAVEWESNGQPENNYKTTPKVLDSDGSFFLYSKLTVDKSRWQQGNVFSCSVMHEALHNHYTQKSLSLSP light: DIVMTQSPATLSLSPGERATLSCTSSQSVYHANWLSWFQQKPGQPPKLLIYWASTLAYGVPSRFSGSGSGTDFTLTISSLQPEDAATYYCAGGYGGGRYAFGQGTKVEIKRTVAAPSVFIFPPSDEQLKSGTASVVCLLNNFYPREAKVQWKVDNALQSGNSQESVTEQDSKDSTYSLSSTLTLSKADYEKHKVYACEVTHQGLSSPVTKSFNRGEC |
| 760 nM | 870 nM | 2100 nM | 2300 nM | 44 nM | 700 nM | 190 nM | M103205H795-MY271/M103202L889-SK1 (antibody, human IgG1, kappa) heavy: QVTLKESGPVLVKPTETLTLTCTVSGIDLSHDDISWVRQAPGKGLEWVGIISYAGSTYYASWAKGRLTISKDTSKNQVVLTMTNMDPVDTATYYCARGVPAYSHGGDLWGQGTLVTVSSASTKGPSVFPLAPSSKSTSGGTAALGCLVKDYFPEPVTVSWNSGALTSGVHTFPAVLQSSGLYSLSSVVTVPSSSLGTQTYICNVNHKPSNTKVDKKVEPKSCDKTHTCPPCPAPELLVGPSVFLFPPKPKDTLMISRTPEVTCVVVDVSDEDPEVKFNWYVDGVEVHNAKTKPREEQYNSTYRVVSVLTVLHQDWLNGKEYKCKVSNKALPKPIEKTISKAKGQPREPQVYTLPPSREEMTKNQVSLTCLVKGFYPSDIAVEWESNGQPENNYKTTPKVLDSDGSFFLYSKLTVDKSRWQQGNVFSCSVMHEALHNHYTQKSLSLSP light: DIVMTQSPATLSLSPGERATLSCTSSQSVYHANWLSWFQQKPGQPPKLLIYWASTLAYGVPSRFSGSGSGTDFTLTISSLQPEDAATYYCAGGYGGGRYAFGQGTKVEIKRTVAAPSVFIFPPSDEQLKSGTASVVCLLNNFYPREAKVQWKVDNALQSGNSQESVTEQDSKDSTYSLSSTLTLSKADYEKHKVYACEVTHQGLSSPVTKSFNRGEC |
| 830 nM | 670 nM | 950 nM | 2500 nM | 8100 nM | 800 nM | 230 nM | M103205H795-MY274/M103202L889-SK1 (antibody, human IgG1, kappa) heavy: QVTLKESGPVLVKPTETLTLTCTVSGIDLSHDDISWVRQAPGKGLEWVGIISYAGSTYYASWAKGRLTISKDTSKNQVVLTMTNMDPVDTATYYCARGVPAYSHGGDLWGQGTLVTVSSASTKGPSVFPLAPSSKSTSGGTAALGCLVKDYFPEPVTVSWNSGALTSGVHTFPAVLQSSGLYSLSSVVTVPSSSLGTQTYICNVNHKPSNTKVDKKVEPKSCDKTHTCPPCPAPELLTGPSVFLFPPKPKDTLMISRTPEVTCVVVDVSDEDPEVKFNWYVDGVEVHNAKTKPREEQYNSTYRVVSVLTVLHQDWLNGKEYKCKVSNKALPKPIEKTISKAKGQPREPQVYTLPPSREEMTKNQVSLTCLVKGFYPSDIAVEWESNGQPENNYKTTPKVLDSDGSFFLYSKLTVDKSRWQQGNVFSCSVMHEALHNHYTQKSLSLSP light: DIVMTQSPATLSLSPGERATLSCTSSQSVYHANWLSWFQQKPGQPPKLLIYWASTLAYGVPSRFSGSGSGTDFTLTISSLQPEDAATYYCAGGYGGGRYAFGQGTKVEIKRTVAAPSVFIFPPSDEQLKSGTASVVCLLNNFYPREAKVQWKVDNALQSGNSQESVTEQDSKDSTYSLSSTLTLSKADYEKHKVYACEVTHQGLSSPVTKSFNRGEC |
